We go through five molecules from patent publication US20130225503A1, “TEX14 PEPTIDES AS NOVEL ANTITUMOR AGENTS” (Baylor Licnensing Group, priority 2009, published 2013).

B1: full-length mouse CEP55 (other, UniProt Q8BT07 1-462, looked up)
chain: MSSRSPKDLIKSKWGSRPSSSKSDTALEKFKGEIAAFKTSLDEITSGKGKMAEKGRSRLLEKIQVLEAEREKNVYYLLEKDKEIQRLKDHLRSRYSSSSLFEQLEEKTKECEKKQQLLESLSKETDVLKNQLSATTKRLSELESKASTLHLSQSMPANCFNSSMNSIHEKEMQLKDALEKNQQWLVYDQQREAYVKGLLAKIFELEKRTETAAASLTQQMKKIESEGYLQVEKQKYDHLLENAKKDLEVERQAVTQLRLELDEFRRKYEEARKEVEDLNQLLSSQRKADIQHLEEDKQKTERIQKLREESSIFKGKLEEERKRSEELLSQVRILYDSLLKHQEEQARVALLEQQMQACTLDFENEKLDRQNMQHQLYVILKELRKAKSQITQLESLKQLHGFTITEQPFPLQREPESRVKATSPKSPSAALNDSLVECPKCSVQYPATEHRDLLVHVEYCMK
notes: whole, on cells; Yeast two-hybrid fusion with a GAL4 domain (pGBKT7 or pGADT7)

The target of one experiment is T1, TX-CEP interaction (Homo sapiens, UniProt Q53EZ4).
T1 construct: expressed in transfected cells; host or cells: HEK293T
T1 sequence (Q53EZ4 157-236 limits assumed): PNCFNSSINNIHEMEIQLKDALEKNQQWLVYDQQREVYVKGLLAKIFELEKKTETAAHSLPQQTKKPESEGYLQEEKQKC
The experiment in a line: Competition assay using the mammalian two-hybrid system, TX-CEP55 interaction. Format: cell-based. To be noted: pcDNA3 overexpression in HEK293T cells; FIG. 6C, FIG. 7 right. An excerpt:
A modified form of the CheckMate/Flexi vector mammalian two-hybrid system (Promega) was used to study the interactions of proteins in mammalian cells. A pGL4Cherry (mCherry/GAL4UAS/Hygro) vector was engineered from the pGL4.31 (luc2P/GAL4UAS/Hygro) vector by replacing the Luc2P firefly luciferase reporter sequence with the mCherry sequence. The pACT vector expresses a protein of interest, “X,” fused to a transcriptional activation domain (VP16-AD) and the pBIND vector expresses the other protein of interest, “Y,” fused to a DNA-binding domain (GAL4-BD) and Renilla luciferase by separate promoters. […]
Sequences encoding the truncated TEX14, CEP55, ALIX, or TSG101 fragments were cloned into the multiple cloning regions of the pACT and pBIND vectors. Some exemplary constructs used are summarized in FIGS. 6A and B. pACT (protein X), pBIND (protein Y), and pGL4Cherry (mCherry/GAL4UAS/Hygro) were transiently cotransfected into HEK293T cells using Fugene 6/HD transfection reagent, and the cells were examined 44 h later for red fluorescence by using an Axiovert 40 CFL microscope (Carl Zeiss). […] The cells were lysed by using Renilla luciferase assay reagent (Promega), and red fluorescence and Renilla luciferase were measured by using a Polar Star Omega microplate reader (BMG LabTech). […]

Another experiment addresses T2, full-length mouse TEX14 (mouse, UniProt Q7M6U3 1-1450).
T2 construct: whole, on cells; In the yeast two-hybrid assay it stood as a fusion with a GAL4 domain (pGBKT7 bait or pGADT7 prey vector)
T2 sequence (looked up): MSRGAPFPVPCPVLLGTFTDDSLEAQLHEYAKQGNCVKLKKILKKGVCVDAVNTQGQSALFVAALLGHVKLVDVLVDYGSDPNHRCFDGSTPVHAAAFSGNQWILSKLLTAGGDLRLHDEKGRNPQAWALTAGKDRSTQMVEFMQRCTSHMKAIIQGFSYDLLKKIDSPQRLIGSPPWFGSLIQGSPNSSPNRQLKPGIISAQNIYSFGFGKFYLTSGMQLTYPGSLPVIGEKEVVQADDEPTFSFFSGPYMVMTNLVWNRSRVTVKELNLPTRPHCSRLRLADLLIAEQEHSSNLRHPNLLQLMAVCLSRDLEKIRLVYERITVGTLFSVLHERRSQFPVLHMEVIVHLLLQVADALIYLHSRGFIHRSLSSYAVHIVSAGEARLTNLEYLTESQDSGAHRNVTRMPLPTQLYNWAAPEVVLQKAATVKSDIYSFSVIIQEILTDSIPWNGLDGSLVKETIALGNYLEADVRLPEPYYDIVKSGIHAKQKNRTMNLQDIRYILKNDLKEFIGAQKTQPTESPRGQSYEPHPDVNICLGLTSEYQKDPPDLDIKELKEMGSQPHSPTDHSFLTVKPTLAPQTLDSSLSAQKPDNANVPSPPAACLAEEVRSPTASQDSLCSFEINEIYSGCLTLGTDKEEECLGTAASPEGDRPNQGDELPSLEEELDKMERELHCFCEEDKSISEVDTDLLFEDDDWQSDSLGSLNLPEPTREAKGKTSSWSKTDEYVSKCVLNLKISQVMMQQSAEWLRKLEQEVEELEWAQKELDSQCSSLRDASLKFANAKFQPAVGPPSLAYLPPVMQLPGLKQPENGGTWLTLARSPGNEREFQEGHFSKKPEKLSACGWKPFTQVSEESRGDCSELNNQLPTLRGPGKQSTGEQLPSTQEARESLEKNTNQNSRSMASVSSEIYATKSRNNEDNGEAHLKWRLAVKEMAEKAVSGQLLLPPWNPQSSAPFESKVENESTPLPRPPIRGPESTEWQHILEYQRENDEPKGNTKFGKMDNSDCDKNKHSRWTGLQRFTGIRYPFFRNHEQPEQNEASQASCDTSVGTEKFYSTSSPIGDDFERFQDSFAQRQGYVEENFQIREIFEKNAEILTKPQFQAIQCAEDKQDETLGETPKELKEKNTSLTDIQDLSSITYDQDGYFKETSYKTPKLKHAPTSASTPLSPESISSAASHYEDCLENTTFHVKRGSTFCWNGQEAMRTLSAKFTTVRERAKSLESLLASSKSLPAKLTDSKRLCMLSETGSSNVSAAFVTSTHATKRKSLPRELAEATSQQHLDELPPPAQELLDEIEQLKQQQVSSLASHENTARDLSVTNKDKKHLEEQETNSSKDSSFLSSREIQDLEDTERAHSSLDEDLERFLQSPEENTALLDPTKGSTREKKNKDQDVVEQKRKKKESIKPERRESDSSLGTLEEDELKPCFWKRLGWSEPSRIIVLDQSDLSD
The experiment in a line: yeast two-hybrid, full-length proteins, oxygen biosensor and selection plates. The procedure: (A) Immunoprecipitation (IP) of FLAG-TEX14 and/or MYC-CEP55 from HEK293T cells, followed by Western blot analysis with the antibodies as shown. Immunoprecipitation of protein G (lanes G) is the control. (B) Yeast two-hybrid analyses using vectors encoding full-length mouse TEX14, MKLP1, CEP55, and positive and negative controls. The relative ratios of TEX14-TEX14, TEX14-MKLP1, and TEX14-CEP55 interactions were determined by using an oxygen-biosensor system. (C) Yeast two-hybrid interactions of mouse and human full-length TEX14 and CEP55. (a) Yeast were stably transformed with vectors and plated for yeast two-hybrid analysis as depicted. SV40 T antigen with p53 and SV40 T antigen with lamin C were used as positive and negative controls, respectively. (b) Interactions between the two-hybrid proteins are evident by colony growth and blue color on selection plates.
(§1) Protein-protein interactions were evaluated by using the Matchmaker Two-Hybrid System 3 (Clontech) as described previously (10). Mouse full-length TEX14 and MLKP1 were previously subcloned into the Matchmaker GAL4 two-hybrid pGBKT7 and pGADT7 vectors (10). The constructs of full-length mouse and human CEP55, human TEX14, truncated mouse CEP55-C1, and truncated mouse TEX14-T1, T2, T1[…]T2, T3, T4, and T4-C were made by using the Matchmaker GAL4 two-hybrid pGBKT7 bait vector and pGADT7 prey vectors. Some Y2H interactions were examined with an oxygen biosensor assay (Clontech PT3584-1) that measured the fluorescence emitted by an oxygen-sensing platform that detects GAL4.
Since both CEP55 and TEX14 interact with MKLP1 (10, 22), it was determined whether CEP55 and TEX14 are components of the intercellular bridge as direct or indirect interactors. The inventors first overexpressed full-length FLAG-TEX14 and MYC-CEP55 constructs in HEK293T cells (FIG. 2A). […] Likewise, when the inventors immunoprecipitate with anti-MYC antibody, they immunoprecipitate both MYC-CEP55 and FLAG-TEX14.

The target of the experiment “full-length mouse CEP55” is B1. The experiment in a line: yeast two-hybrid. The procedure: as §1
To determine the relevance of this GPPX3Y motif as it relates to the interaction of TEX14 with CEP55, we performed yeast two-hybrid assays with mouse TEX14 amino acids 756 to 815 that contain the GPPX3Y motif (FIG. 3A). These 60 amino acids interacted with full-length CEP55 (FIGS. 3B and C). Conversely, an 80-amino-acid fragment of CEP55 (C1) that contains the hinge region interacted with full-length TEX14, the C terminus (T3), and GPPX3Y-containing fragment (T4) but not a shorter sequence that lacked the GPPX3Y motif (T4-C) (FIG. 3A to C). Thus, similar GPPX3Y-containing regions of TEX14, ALIX, and TSG101 interact with the hinge region of CEP55.

On to “ALIX: truncated ALIX region including the GPPX3Y motif, pcDNA3 overexpression vector (ATAPSPVGAGTAAPAPSQTPGSAPPPQAQGPPYPTYPGYPGYCQMPMPMGYNPYAYGQYN)”, for which, in the experiment with TX-CEP interaction, the “effect of overexpression on TX-CEP interaction” value was “fails to disrupt”.

Consider “TSG: truncated TSG101 region including the GPPX3Y motif, pcDNA3 overexpression vector (MIVVFGDEPPVFSRPISASYPPYQATGPPNTSYMPGMPGGISPYPSGYPPNPSGYPGCPY)”, for which the “effect of overexpression on TX-CEP interaction” value in the experiment with TX-CEP interaction was “fails to disrupt”.

On to B1, for which the binding result with full-length mouse TEX14 was “binds”.

B2: mouse TEX14 amino acids 756 to 815, GPPX3Y-containing fragment (T4) (peptide, UniProt Q7M6U3 756-815, looked up)
chain: EVEELEWAQKELDSQCSSLRDASLKFANAKFQPAVGPPSLAYLPPVMQLPGLKQPENGGT
notes: range 756-815; Yeast two-hybrid GAL4 fusion; also called TEX14-T4
As to B2, in the experiment with full-length mouse CEP55, the binding result is given as “binds”.

B3: full-length mouse MKLP1 (other, UniProt E9Q5G3 1-953, looked up)
chain: MKSAKAKTVRKPVIKKGSQTNLKDPVGVYCRVRPLSFPDQECCVEVINSTTLQLHTPEGYRLNRNGDYKETQYSFKRVFGTHTTQKELFDVVANPLVDDLIHGKNGLLFTYGVTGSGKTYTMTGSPGSGGLLPRCLNMIFNSIGSFQAKRYVFKSNDRNSMEIQCEVDALLERQKREALPIPKTPSSKRQADPEFADMINVQEFCKAEEVDEDSVYGVFVSYIEIYNNYIYDLLEEVQFDPIKPKLPQSKTLREDKNHNMYVAGCTEVEVKSTEEAFEVFWRGQKKRRIANTHLNRESSRSHSVFSIKLVQAPLDADGDNVLQEKEQITISQLSLVDLAGSERTNRTKAEGNRLREAGNINQSLMTLRTCMEVLRENQTYGTNKMVPYRDSKLTHLFKNYFDGEGKVRMIVCVNPKAEDYEESLQVMRFAEVTQEVEVARPVDKVICGLTPGRRYRNLPRGGPVGDEPLVPEVILQSFPPLPPCKLLDINDEETLPKLADTLEKRHHLRQLMTEDLNKKCLAFKALLKEFDNSLSNKENYVQEKLNEREKVISGQKLEIERLEKKNKTLEYKIEILEKTTTIYEEDKRNLQQELESQNQKLQRQFSDKRRLEARLQGMVTETSMKWQKECERRVAATQLEMQNKLWVKDEKLKQLKAIVTEPKPEKPERPSRERDREKIIPRSVSPSPLPLSSNNIAQISNGQQLMSQPQLHRRSNSCSSISVASCISEWEQKLSPFSTPVNVTSLARHRQQEPGQSKTCIVSDRRRGMCWTEGREMVPTFSSEIGVEEDHCRRNTPIPVRHRRSRSAGSRWVDHKPASNVQTETVMQPHVPHAITVSVANEKALAKCEKYMLTHQELASDGEIQTKVIKGDVYKTRGGGQSVQFTDIETLKQELPTGSRKRRSSTLAPAQPDGTESEWTDVETRCSVAVEMRAGSQLGPGYQHHAQPKRKKP
notes: whole, on cells; Yeast two-hybrid fusion with a GAL4 domain; also called MLKP1
Regarding B3, the binding result in the experiment with full-length mouse TEX14 is “binds”.
